Source: PMC11262690

Biological target: Nematocida displodere mechanosensitive ion channel of small conductance 2, MscS2Δ2–29 (His14-SUMO tag cleaved) (Nematocida displodere)
Assay: cryo-EM structure; single-particle, 0.33 mg/mL in DDM, 200 kV Glacios; consensus refinement without symmetry 8.3 Å, focused refinement of two channels 7.7 Å

Substance: Nematocida displodere mechanosensitive ion channel of small conductance 2, MscS2Δ2–29 (His14-SUMO tag cleaved) (domain or fragment)
- heptameric channels in the superstructure: 6
- stoichiometry N: 7
